Values joined by “and” are separate entries in the source; they are usually repeats but may differ in a detail not shown here. Equal values may be shown once. “Also recorded” adds a separate entry of the source.
B1: 3F6-9G5: anti-human A2aR monoclonal antibody from mouse hybridoma clone; HCVR SEQ ID NO: 36, LCVR SEQ ID NO: 42 (antibody, V domains shown)
VH: QVQLQQPGTELVKPGAPVRLSCKASGFAFTSYWMNWVRQRPGRGLEWIGRIDPSDSEAHYHHKFWGKATLTVDKSSSTVYIQLNGLTSEDSAVYYCLRSLYGKGDYWGHGTTLTVSS
VL: DVLMTQTPLSLSVRLGDQASISCRSSQSLVHRNGNTYLEWYLQRPGQSPKLLIYKVSNRFSGVPDRFSGSGSGTDFTLKISRVEAEDLGVYYCYQGSHVPLTFGSGTKLEIK
B2: anti-human A2aR monoclonal antibody 1B5-3D7 (antibody, V domains shown)
VH: QVQLQQPGTELVKPGAPVKLSCKTSGFTFTRFWMNWVRQRPGRGLEWIGRIDPYDSETQYNHKFWDRATLTVDKSSSTVYIQLSSLTSEDSAVYYCGRSLYGKGDYWGQGTTLTVSS
VL: DVLMTQSPLSLPVSLGDQASISCRSSQSIVHSNGNTYLEWYLQRPGQSPKLLIYKVSNRFSGVPDRFSGSGSGTYFTLRISRVEAEDLGIYYCFQGSHVPLTFGSGTTLELK
notes: Tested as whole mouse IgG2a / kappa, purified from hybridoma supernatant or made recombinantly in Expi293 cells; also called 1B-3D7

Legend:
[1] = molecular target: T1, human A2aR on human T cells (PBMC) (Homo sapiens, UniProt P29274); assay: primary cell binding by flow cytometry, human PBMC; conditions: rabbit Fc format, 2 μg/ml
T1 construct: host or cells: human PBMC (T cells)
T1 sequence (P29274 whole entry): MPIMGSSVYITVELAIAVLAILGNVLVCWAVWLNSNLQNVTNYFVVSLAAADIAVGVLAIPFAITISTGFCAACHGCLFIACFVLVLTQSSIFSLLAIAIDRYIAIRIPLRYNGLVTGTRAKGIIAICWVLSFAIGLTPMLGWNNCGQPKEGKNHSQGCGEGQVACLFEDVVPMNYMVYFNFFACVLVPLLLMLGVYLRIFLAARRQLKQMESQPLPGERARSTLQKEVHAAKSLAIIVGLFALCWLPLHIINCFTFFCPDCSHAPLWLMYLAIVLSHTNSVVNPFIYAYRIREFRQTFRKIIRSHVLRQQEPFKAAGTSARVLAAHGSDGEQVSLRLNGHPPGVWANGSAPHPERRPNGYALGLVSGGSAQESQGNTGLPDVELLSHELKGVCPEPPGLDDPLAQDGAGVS
Method: (§1) Human and cynomolgus PBMCs were purchased from Cytologics LLC (San Diego, CA) and iQ Biosciences (Berkeley, CA), respectively. Primary cell binding was determined using anti-human A2aR clone 3F6-9G5 at rabbit Fc format. In brief, 10^6 human and/or cynomolgus PBMCs in 100 μl FACS buffer were incubated with 3F6-9G5 (2 μg/ml) at 4° C. for 60 minutes. Cynomolgus cross-reactive anti-human CD3 (clone SP34, BD), anti-human CD8 (clone RPA-T8, Biolegend) and Zombie Green fixable Viability dye (Biolegend, Cat. 423111) were used according to manufacturer's instruction to define live immune cell subsets. After 3 washes with FACS buffer, cells were stained with PE-conjugated donkey anti-rabbit Fc detection antibody (1:200, Biolegend, Cat. 406421) for 30 minutes at 4° C. After 3 washes with FACS buffer, cells were analyzed on LSRII (Becton Dickinson). Data was analyzed using FlowJo (Becton Dickinson).

[2] = tested on: HEK293T cell without exogenous adenosine receptor; assay: flow cytometry-based cell-binding assay, parental HEK293T; set-up: species or system human; conditions: duplicate
Method: (§2) To test the specificity of the antigen binding molecules of the invention, e.g., anti-A2aR antibodies or antigen binding fragments thereof to human A2aR and not towards any of the other 3 adenosine receptor family members, a flow cytometry-based cell-binding assay was performed by Multispan Inc (Hayward, CA). HEK293T cells stably expressing various adenosine receptors, i.e., human A1R, A2bR, and A3R, and mouse A2R, generated by Multispan Inc and HEK293T parental cell lines were used in the assay. Briefly, adenosine receptor-overexpressing cell lines and HEK293T parental cell lines were incubated with 2, 10, and 50 nM of anti-human A2aR monoclonal antibodies (clones 1B5-3D7 and 3F6-9G5) and 10 and 50 nM of mouse IgG2a Isotype control at 4° C. in the dark for 60 minutes. Anti-FLAG antibody (Abcam, ab72469, 2 μg/mL) was used as positive control for cell lines over-expressing various adenosine receptors, respectively. After 3 washes with FACS buffer (PBS plus 0.1% BSA and 0.2% sodium azide), cells were stained with an anti-mouse-IgG-PE (Invitrogen, cat. P852) detection antibody for 45 minutes at 4° C. The cells were then washed 3 times with FACS buffer and analyzed on FACSort (Becton Dickinson). Data was analyzed using CellQuest Pro (Becton Dickinson).

[3] = molecular target: T2, human adenosine receptor A2B (Homo sapiens, UniProt P29275); assay: flow cytometry-based cell-binding assay, HEK293T-A2B; conditions: duplicate
T2 construct: FLAG
T2 sequence (P29275 1-332): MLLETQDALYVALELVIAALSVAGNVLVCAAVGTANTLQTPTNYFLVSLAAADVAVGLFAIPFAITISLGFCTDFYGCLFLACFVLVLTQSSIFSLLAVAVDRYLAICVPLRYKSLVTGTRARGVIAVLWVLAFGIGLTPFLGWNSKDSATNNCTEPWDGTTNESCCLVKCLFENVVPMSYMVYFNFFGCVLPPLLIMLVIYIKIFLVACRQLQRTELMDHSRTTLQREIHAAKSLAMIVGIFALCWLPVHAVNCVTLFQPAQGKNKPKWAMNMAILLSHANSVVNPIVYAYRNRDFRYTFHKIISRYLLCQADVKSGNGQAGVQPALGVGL
Method: as §2

[4] = tested on: cynomolgus A2aR on cynomolgus T cells (PBMC); assay: primary cell binding by flow cytometry, cynomolgus PBMC; conditions: rabbit Fc format, 2 μg/ml
Sequence of cynomolgus A2aR on cynomolgus T cells (PBMC) (as listed by the source): as the sequence (P29274 whole entry) above, with M1V, S263N, A371T, G379S, D407G counted along it
Method: as §1

[5] = molecular target: T3, human adenosine receptor A3 (human, UniProt P0DMS8 1-318); assay: flow cytometry on HEK293T cells stably expressing human A3R
T3 construct: whole, on cells; the tag is not described; also called A3R; human A3R
T3 sequence (looked up): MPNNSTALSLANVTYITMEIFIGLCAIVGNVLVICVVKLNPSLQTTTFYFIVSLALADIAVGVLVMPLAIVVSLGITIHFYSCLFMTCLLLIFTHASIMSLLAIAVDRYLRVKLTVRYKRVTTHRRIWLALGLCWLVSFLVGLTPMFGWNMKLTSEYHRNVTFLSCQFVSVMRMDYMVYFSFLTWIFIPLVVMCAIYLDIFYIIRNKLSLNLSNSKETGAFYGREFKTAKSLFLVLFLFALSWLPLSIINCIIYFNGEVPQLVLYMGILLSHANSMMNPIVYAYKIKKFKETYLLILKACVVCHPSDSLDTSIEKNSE

[6] = molecular target: T4, mouse adenosine receptor A2A (mouse, UniProt Q60613 1-410); assay: flow cytometry on HEK293T cells stably expressing mouse A2aR
T4 construct: whole, on cells; the tag is not described; also called mouse A2aR; mouse A2R
T4 sequence (Q60613 whole entry): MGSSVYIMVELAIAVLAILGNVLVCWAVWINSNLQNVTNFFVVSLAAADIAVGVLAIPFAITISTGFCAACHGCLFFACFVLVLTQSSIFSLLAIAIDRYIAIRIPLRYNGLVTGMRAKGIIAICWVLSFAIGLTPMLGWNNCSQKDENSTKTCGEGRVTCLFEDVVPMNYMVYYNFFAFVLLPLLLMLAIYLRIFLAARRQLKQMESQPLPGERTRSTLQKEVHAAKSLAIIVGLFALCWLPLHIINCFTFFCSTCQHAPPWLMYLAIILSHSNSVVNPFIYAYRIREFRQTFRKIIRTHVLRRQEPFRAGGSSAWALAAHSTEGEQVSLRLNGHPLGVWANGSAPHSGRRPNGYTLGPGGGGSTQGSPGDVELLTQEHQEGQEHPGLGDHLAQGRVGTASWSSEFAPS

[7] = molecular target: human adenosine A2A receptor (A2aR) (human, UniProt P29274 1-412); assay: cell-based or functional assay
Sequence of human adenosine A2A receptor (A2aR) (P29274 whole entry): as the sequence (P29274 whole entry) above

[8] = molecular target: T5, human adenosine receptor A2B (human, UniProt P29275 1-332); assay: flow cytometry on HEK293T cells stably expressing human A2bR
T5 construct: whole, on cells; the tag is not described; also called A2bR; human A2bR
T5 sequence (looked up): T2 sequence (P29275 1-332)

Molecule	binding to human T cells (CD4+ and CD8+) of PBMC (FIG. 6) [1]	Geo Mean ([2]; 2 nM)	Geo Mean ([2]; 10 nM)	Geo Mean ([2]; 50 nM)	Geo Mean ([3]; 2 nM)	Geo Mean ([3]; 50 nM)	binding to cynomolgus T cells (CD4+ and CD8+) of PBMC (FIG. 6) [4]	binding result [5]	binding result [6]	IC50 (M), cAMP-Glo assay of NECA-induced cAMP in HEK293 cells stably expressing human A2aR [7]	binding result [8]
B1	bound to a small subset of human T cells; also recorded: binds	3.98 and 4.33	4.01 and 4.27	4.19 and 6.16	3.13 and 2.8	7.27 and 3.74	cross-reacted with cynomolgus T cells; also recorded: binds	–	–	–	–
B2	–	3.69 and 4.11	5.42 and 4.07	5.24 and 4.96	5.42 and 3.8	3.42 and 2.79	–	no binding (tested: 2, 10 and 50 nM tested)	no binding (tested: 2, 10 and 50 nM tested)	4.48e-09 M	no binding (tested: 2, 10 and 50 nM tested)
